Read-outs that look alike come from different tables or passages of the source.
Legend:
4H3189-bA = biological target: T1, 4H3189-bA; experiment: two-hybrid library CCNG1;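 further: natural log of median RNA to DNA barcode read ratio; higher means stronger binding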
T1 chain: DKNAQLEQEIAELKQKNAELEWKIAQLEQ

4H331-bA = biological target: T2, 4H331-bA; experiment: two-hybrid library CCNG1;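 further: natural log of median RNA to DNA barcode read ratio; higher means stronger binding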
T2 chain: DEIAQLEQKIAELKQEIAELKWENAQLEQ

4H3606-bA = biological target: T3, 4H3606-bA; experiment: two-hybrid library CCNG1;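 further: natural log of median RNA to DNA barcode read ratio; higher means stronger binding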
T3 chain: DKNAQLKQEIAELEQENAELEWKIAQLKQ

4H370-bA = biological target: T4, 4H370-bA; experiment: two-hybrid library CCNG1;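 further: natural log of median RNA to DNA barcode read ratio; higher means stronger binding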
T4 chain: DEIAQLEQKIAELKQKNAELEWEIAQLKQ

4H3782-bA = biological target: T5, 4H3782-bA; experiment: two-hybrid library CCNG1
T5 chain: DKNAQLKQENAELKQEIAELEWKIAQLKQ

4H3843-bA = biological target: T6, 4H3843-bA; experiment: two-hybrid library CCNG1
T6 chain: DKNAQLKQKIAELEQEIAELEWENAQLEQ

4H4001-bA = biological target: T7, 4H4001-bA; experiment: two-hybrid library CCNG1
T7 chain: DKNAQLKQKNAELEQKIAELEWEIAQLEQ

4H462-bA = biological target: T8, 4H462-bA; experiment: two-hybrid library CCNG1
T8 chain: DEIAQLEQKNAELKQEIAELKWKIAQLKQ

4H568-bA = biological target: T9, 4H568-bA; experiment: two-hybrid library CCNG1
T9 chain: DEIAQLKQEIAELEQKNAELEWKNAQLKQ

4H607-bA = biological target: T10, 4H607-bA; experiment: two-hybrid library CCNG1
T10 chain: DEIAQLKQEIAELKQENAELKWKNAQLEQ

4H687-bA = biological target: T11, 4H687-bA; experiment: two-hybrid library CCNG1
T11 chain: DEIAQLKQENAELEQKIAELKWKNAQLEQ

4H72-bA = biological target: T12, 4H72-bA; experiment: two-hybrid library CCNG1
T12 chain: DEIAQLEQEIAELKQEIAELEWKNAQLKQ

4H797-bA = biological target: T13, 4H797-bA; experiment: two-hybrid library CCNG1
T13 chain: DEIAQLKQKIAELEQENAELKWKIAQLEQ

4H883-bA = biological target: T14, 4H883-bA; experiment: two-hybrid library CCNG1
T14 chain: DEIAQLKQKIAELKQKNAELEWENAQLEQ

4H918-bA = biological target: T15, 4H918-bA; experiment: two-hybrid library CCNG1
T15 chain: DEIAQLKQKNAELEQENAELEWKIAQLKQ

4H953-bA = biological target: T16, 4H953-bA; experiment: two-hybrid library CCNG1
T16 chain: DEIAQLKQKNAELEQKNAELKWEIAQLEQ

4H967-bA = biological target: T17, 4H967-bA; experiment: two-hybrid library CCNG1
T17 chain: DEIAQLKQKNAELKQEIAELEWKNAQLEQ

4H1877-AA = biological target: T18, 4H1877-AA; experiment: two-hybrid library CCmax
T18 chain: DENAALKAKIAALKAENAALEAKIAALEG

4H2109-AA = biological target: T19, 4H2109-AA; experiment: two-hybrid library CCmax; settings: mean of both orientations
T19 chain: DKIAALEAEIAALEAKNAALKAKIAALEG

4H2162-AA = biological target: T20, 4H2162-AA; experiment: two-hybrid library CCmax; settings: mean of both orientations
T20 chain: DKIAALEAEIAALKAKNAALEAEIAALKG

4H2253-AA = biological target: T21, 4H2253-AA; experiment: two-hybrid library CCmax; settings: mean of both orientations
T21 chain: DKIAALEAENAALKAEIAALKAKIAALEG

4H2274-AA = biological target: T22, 4H2274-AA; experiment: two-hybrid library CCmax; settings: mean of both orientations
T22 chain: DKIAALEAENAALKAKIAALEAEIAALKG

4H2330-AA = biological target: T23, 4H2330-AA; experiment: two-hybrid library CCmax; settings: mean of both orientations
T23 chain: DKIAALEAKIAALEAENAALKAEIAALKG

4H2389-AA = biological target: T24, 4H2389-AA; experiment: two-hybrid library CCmax; settings: mean of both orientations
T24 chain: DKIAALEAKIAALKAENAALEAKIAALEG

4H2438-AA = biological target: T25, 4H2438-AA; experiment: two-hybrid library CCmax; settings: mean of both orientations
T25 chain: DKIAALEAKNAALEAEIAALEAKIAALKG

4H2473-AA = biological target: T26, 4H2473-AA; experiment: two-hybrid library CCmax; settings: mean of both orientations
T26 chain: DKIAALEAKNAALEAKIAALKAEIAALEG

4H2649-AA = biological target: T27, 4H2649-AA; experiment: two-hybrid library CCmax; settings: mean of both orientations
T27 chain: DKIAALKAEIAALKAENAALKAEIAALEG

4H2698-AA = biological target: T28, 4H2698-AA; experiment: two-hybrid library CCmax; settings: mean of both orientations
T28 chain: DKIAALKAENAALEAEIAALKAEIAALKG

4H2725-AA = biological target: T29, 4H2725-AA; experiment: two-hybrid library CCmax; settings: mean of both orientations
T29 chain: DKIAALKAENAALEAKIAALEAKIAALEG

4H2865-AA = biological target: T30, 4H2865-AA; experiment: two-hybrid library CCmax; settings: mean of both orientations
T30 chain: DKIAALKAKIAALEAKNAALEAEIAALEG

4H3009-AA = biological target: T31, 4H3009-AA; experiment: two-hybrid library CCmax; settings: mean of both orientations
T31 chain: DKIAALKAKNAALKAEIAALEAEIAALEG

4H3016-AA = biological target: T32, 4H3016-AA; experiment: two-hybrid library CCmax; settings: mean of both orientations
T32 chain: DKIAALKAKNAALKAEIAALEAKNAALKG

4H310-AA = biological target: T33, 4H310-AA; experiment: two-hybrid library CCmax; settings: mean of both orientations
T33 chain: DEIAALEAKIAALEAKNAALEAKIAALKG

4H3120-AA = biological target: T34, 4H3120-AA; experiment: two-hybrid library CCmax; settings: mean of both orientations
T34 chain: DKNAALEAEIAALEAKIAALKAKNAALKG

4H3130-AA = biological target: T35, 4H3130-AA; experiment: two-hybrid library CCmax; settings: mean of both orientations
T35 chain: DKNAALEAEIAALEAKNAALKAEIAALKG

4H3165-AA = biological target: T36, 4H3165-AA; experiment: two-hybrid library CCmax; settings: mean of both orientations
T36 chain: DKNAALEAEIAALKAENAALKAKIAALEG

4H3381-AA = biological target: T37, 4H3381-AA; experiment: two-hybrid library CCmax
T37 chain: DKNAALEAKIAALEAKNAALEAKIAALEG

4H3395-AA = biological target: T38, 4H3395-AA; experiment: two-hybrid library CCmax; settings: mean of both orientations
T38 chain: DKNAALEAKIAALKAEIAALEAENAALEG

4H3410-AA = biological target: T39, 4H3410-AA; experiment: two-hybrid library CCmax; settings: mean of both orientations
T39 chain: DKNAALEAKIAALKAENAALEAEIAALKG

4H3590-AA = biological target: T40, 4H3590-AA; experiment: two-hybrid library CCmax; settings: mean of both orientations
T40 chain: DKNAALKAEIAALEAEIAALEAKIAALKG

4H3697-AA = biological target: T41, 4H3697-AA; experiment: two-hybrid library CCmax; settings: mean of both orientations
T41 chain: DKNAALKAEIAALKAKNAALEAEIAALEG

4H3753-AA = biological target: T42, 4H3753-AA; experiment: two-hybrid library CCmax; settings: mean of both orientations
T42 chain: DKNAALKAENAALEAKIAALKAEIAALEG

4H3865-AA = biological target: T43, 4H3865-AA; experiment: two-hybrid library CCmax; settings: mean of both orientations
T43 chain: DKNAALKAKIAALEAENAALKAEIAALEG

4H458-AA = biological target: T44, 4H458-AA; experiment: two-hybrid library CCmax; settings: mean of both orientations
T44 chain: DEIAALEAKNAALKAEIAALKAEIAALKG

4H485-AA = biological target: T45, 4H485-AA; experiment: two-hybrid library CCmax; settings: mean of both orientations
T45 chain: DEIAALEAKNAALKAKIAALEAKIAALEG

4H536-AA = biological target: T46, 4H536-AA; experiment: two-hybrid library CCmax; settings: mean of both orientations
T46 chain: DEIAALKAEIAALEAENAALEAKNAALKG

4H570-AA = biological target: T47, 4H570-AA; experiment: two-hybrid library CCmax; settings: mean of both orientations
T47 chain: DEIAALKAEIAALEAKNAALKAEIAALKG

4H629-AA = biological target: T48, 4H629-AA; experiment: two-hybrid library CCmax; settings: mean of both orientations
T48 chain: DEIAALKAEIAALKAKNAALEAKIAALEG

4H710-AA = biological target: T49, 4H710-AA; experiment: two-hybrid library CCmax; settings: mean of both orientations
T49 chain: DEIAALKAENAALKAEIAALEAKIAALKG

4H745-AA = biological target: T50, 4H745-AA; experiment: two-hybrid library CCmax; settings: mean of both orientations
T50 chain: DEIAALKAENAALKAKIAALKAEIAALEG

4H797-AA = biological target: T51, 4H797-AA; experiment: two-hybrid library CCmax; settings: mean of both orientations
T51 chain: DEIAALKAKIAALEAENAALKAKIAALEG

4H850-AA = biological target: T52, 4H850-AA; experiment: two-hybrid library CCmax; settings: mean of both orientations
T52 chain: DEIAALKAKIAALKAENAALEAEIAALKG

4H891-AA = biological target: T53, 4H891-AA; experiment: two-hybrid library CCmax; settings: mean of both orientations
T53 chain: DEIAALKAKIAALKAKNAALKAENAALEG

4H909-AA = biological target: T54, 4H909-AA; experiment: two-hybrid library CCmax; settings: mean of both orientations
T54 chain: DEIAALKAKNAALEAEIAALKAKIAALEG

4H930-AA = biological target: T55, 4H930-AA; experiment: two-hybrid library CCmax; settings: mean of both orientations
T55 chain: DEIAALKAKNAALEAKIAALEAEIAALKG

4H94-AA = biological target: T56, 4H94-AA; experiment: two-hybrid library CCmax; settings: mean of both orientations
T56 chain: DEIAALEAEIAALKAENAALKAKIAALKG

DKNAQLEQEIAELKQKNAELEWKIAQLEQ [4H3189-bA]
interaction score (4H3189-bA): 0.465
interaction score (4H331-bA): -1.26
interaction score (4H3606-bA): -0.875
interaction score (4H370-bA): -0.547
interaction score (4H3782-bA): -0.906
interaction score (4H3843-bA): -1.24
interaction score (4H4001-bA): -0.765
interaction score (4H462-bA): -1.62
interaction score (4H568-bA): -1.19
interaction score (4H607-bA): -1.11
interaction score (4H687-bA): -0.444
interaction score (4H72-bA): -1.18
interaction score (4H797-bA): -1.42
interaction score (4H883-bA): -1.22
interaction score (4H918-bA): -1.44
interaction score (4H953-bA): -1.34
interaction score (4H967-bA): -1.1

DENAALKAKIAALKAENAALEAKIAALEG [4H1877-AA]
interaction score (4H1877-AA): 0.288
interaction score (4H2109-AA): 1.92
interaction score (4H2162-AA): -1.25
interaction score (4H2253-AA): -1.17
interaction score (4H2274-AA): -1.35
interaction score (4H2330-AA): -1.51
interaction score (4H2389-AA): -1.07
interaction score (4H2438-AA): -1.24
interaction score (4H2473-AA): -1.47
interaction score (4H2649-AA): -0.409
interaction score (4H2698-AA): -1.45
interaction score (4H2725-AA): -0.897
interaction score (4H2865-AA): -0.796
interaction score (4H3009-AA): 1.03
interaction score (4H3016-AA): 0.714
interaction score (4H310-AA): -0.467
interaction score (4H3120-AA): -1.28
interaction score (4H3130-AA): 1.82
interaction score (4H3165-AA): 0.715
interaction score (4H3381-AA): -0.523
interaction score (4H3395-AA): -1.77
interaction score (4H3410-AA): -1.43
interaction score (4H3590-AA): -0.565
interaction score (4H3697-AA): -0.0749
interaction score (4H3753-AA): -1.7
interaction score (4H3865-AA): 0.523
interaction score (4H458-AA): -0.933
interaction score (4H485-AA): 0.957
interaction score (4H536-AA): -0.101
interaction score (4H570-AA): 1.9
interaction score (4H629-AA): -0.167
interaction score (4H710-AA): -0.752
interaction score (4H745-AA): -1.08
interaction score (4H797-AA): 0.589
interaction score (4H850-AA): -1.25
interaction score (4H891-AA): -1.36
interaction score (4H909-AA): -1.84
interaction score (4H930-AA): -1.46
interaction score (4H94-AA): 1.3

DKNAQLKQEIAELEQENAELEWKIAQLKQ [4H3606-bA]
interaction score (4H3606-bA; mean of both orientations): -0.112
interaction score (4H370-bA): 1.25
interaction score (4H3782-bA): 0.289
interaction score (4H3843-bA): -0.812
interaction score (4H4001-bA): -0.523
interaction score (4H462-bA): -1.18
interaction score (4H568-bA): -0.435
interaction score (4H607-bA): -0.936
interaction score (4H687-bA): -0.711
interaction score (4H72-bA): -2.04
interaction score (4H797-bA): -1.09
interaction score (4H883-bA): 0.708
interaction score (4H918-bA): -0.427
interaction score (4H953-bA): 0.309
interaction score (4H967-bA): 0.947

From paper PMC10397247
